Key:
[1] = target: T1, AFP158/HLA-A*02:01 complex (human); assay: SPR, fold vs AS170036 VL1VH1;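 note: crude scFv muteins immobilised on a sensor chip, peptide–MHC complex passed over at several concentrations, binding then buffer-driven dissociation, KD estimated from on- and off-rates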
T1 construct: flowed as analyte in SPR
Description: (§1) The experiment was carried out as follows. The crude scFv protein were captured onto the sensorchip. Different concentrations (320, 160, 40 nM) of AFP158/HLA-A*02:01 complex flowed over the sensorchip surface, and were allowed to bind the antibody fragment for 100 s followed by injection of the running buffer to allow dissociation of the complex. On-rate (kd) and off-rate (kd) were calculated based on association and dissociation curve, and were used to estimate the equilibrium dissociation constant (KD).
(§2) The crude scFv muteins were then subjected to SPR affinity measurement by the method mentioned above.

[2] = target: T1, AFP158/HLA-A*02:01 complex; assay: SPR, crude scFv captured, pMHC analyte;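 note: pMHC analyte injected at three concentrations, association phase of one hundred seconds, then running buffer for dissociation, rates fitted from both curves, KD derived from the rates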
Description: as §1, §2

B1: AS170036 VL1VH1-57H98Q (scFv)
scFv: QSALTQPRSVSGSPGQSVTISCAGTSSDVGSENYVSWYQQHPGKAPKLMIYQVNKRASGVPDRFSGSKSGNTASLTISGLQAEDEADYYCASYRSSDQNIVFGGGTKLTVLGGGGSGGGGSGGGGSEVQLVESGGGLVQPGGSLRLSCAASGFTFSSYAMSWVRQAPGKGLEWVSTINSGTGHPYYADSVKGRFTISRDNSKNTLYLQMNSLRAEDTAVYYCAKNFFDGSWFLGPPAMDYWGQGTLVTVSSHHHHHH
notes: also called 09-AS170036 VL1VH1-57H98Q
Affinity increase [1]: 24.8 fold | Kd [2]: 9.1 nM | koff [2]: 0.0017 s⁻¹ | kon [2]: 190000 M⁻¹ s⁻¹

B2: AS170036 VL1VH1-57H108A (scFv)
scFv: QSALTQPRSVSGSPGQSVTISCAGTSSDVGSENYVSWYQQHPGKAPKLMIYQVNKRASGVPDRFSGSKSGNTASLTISGLQAEDEADYYCASYRSSDHNIVFGGGTKLTVLGGGGSGGGGSGGGGSEVQLVESGGGLVQPGGSLRLSCAASGFTFSSYAMSWVRQAPGKGLEWVSTINSGTGHPYYADSVKGRFTISRDNSKNTLYLQMNSLRAEDTAVYYCAKNFFDGSWFLAPPAMDYWGQGTLVTVSSHHHHHH
notes: also called 22-AS170036 VL1VH1-57H108A
Affinity increase [1]: 32.5 fold | Kd [2]: 6.9 nM | koff [2]: 0.0014 s⁻¹ | kon [2]: 210000 M⁻¹ s⁻¹

B3: AS170036 VL1VH1-57H108D (scFv)
scFv: QSALTQPRSVSGSPGQSVTISCAGTSSDVGSENYVSWYQQHPGKAPKLMIYQVNKRASGVPDRFSGSKSGNTASLTISGLQAEDEADYYCASYRSSDHNIVFGGGTKLTVLGGGGSGGGGSGGGGSEVQLVESGGGLVQPGGSLRLSCAASGFTFSSYAMSWVRQAPGKGLEWVSTINSGTGHPYYADSVKGRFTISRDNSKNTLYLQMNSLRAEDTAVYYCAKNFFDGSWFLDPPAMDYWGQGTLVTVSSHHHHHH
notes: also called 23-AS170036 VL1VH1-57H108D
Affinity increase [1]: 23.5 fold | Kd [2]: 9.6 nM | koff [2]: 0.002 s⁻¹ | kon [2]: 210000 M⁻¹ s⁻¹

B4: AS170036 VL1VH1-57H108S (scFv)
scFv: QSALTQPRSVSGSPGQSVTISCAGTSSDVGSENYVSWYQQHPGKAPKLMIYQVNKRASGVPDRFSGSKSGNTASLTISGLQAEDEADYYCASYRSSDHNIVFGGGTKLTVLGGGGSGGGGSGGGGSEVQLVESGGGLVQPGGSLRLSCAASGFTFSSYAMSWVRQAPGKGLEWVSTINSGTGHPYYADSVKGRFTISRDNSKNTLYLQMNSLRAEDTAVYYCAKNFFDGSWFLSPPAMDYWGQGTLVTVSSHHHHHH
notes: also called 24-AS170036 VL1VH1-57H108S
Affinity increase [1]: 14.2 fold | Kd [2]: 16 nM | koff [2]: 0.0022 s⁻¹ | kon [2]: 140000 M⁻¹ s⁻¹

B5: AS170036 VL1VH1-57K98F (scFv)
scFv: QSALTQPRSVSGSPGQSVTISCAGTSSDVGSENYVSWYQQHPGKAPKLMIYQVNKRASGVPDRFSGSKSGNTASLTISGLQAEDEADYYCASYRSSDFNIVFGGGTKLTVLGGGGSGGGGSGGGGSEVQLVESGGGLVQPGGSLRLSCAASGFTFSSYAMSWVRQAPGKGLEWVSTINSGTGKPYYADSVKGRFTISRDNSKNTLYLQMNSLRAEDTAVYYCAKNFFDGSWFLGPPAMDYWGQGTLVTVSSHHHHHH
notes: also called 10-AS170036 VL1VH1-57K98F
Affinity increase [1]: 11.8 fold | Kd [2]: 19 nM | koff [2]: 0.004 s⁻¹ | kon [2]: 210000 M⁻¹ s⁻¹

B6: AS170036 VL1VH1-57K98I (scFv)
scFv: QSALTQPRSVSGSPGQSVTISCAGTSSDVGSENYVSWYQQHPGKAPKLMIYQVNKRASGVPDRFSGSKSGNTASLTISGLQAEDEADYYCASYRSSDINIVFGGGTKLTVLGGGGSGGGGSGGGGSEVQLVESGGGLVQPGGSLRLSCAASGFTFSSYAMSWVRQAPGKGLEWVSTINSGTGKPYYADSVKGRFTISRDNSKNTLYLQMNSLRAEDTAVYYCAKNFFDGSWFLGPPAMDYWGQGTLVTVSSHHHHHH
notes: also called 11-AS170036 VL1VH1-57K98I
Affinity increase [1]: 9.1 fold | Kd [2]: 25 nM | koff [2]: 0.004 s⁻¹ | kon [2]: 160000 M⁻¹ s⁻¹

B7: AS170036 VL1VH1-57K98Q (scFv)
scFv: QSALTQPRSVSGSPGQSVTISCAGTSSDVGSENYVSWYQQHPGKAPKLMIYQVNKRASGVPDRFSGSKSGNTASLTISGLQAEDEADYYCASYRSSDQNIVFGGGTKLTVLGGGGSGGGGSGGGGSEVQLVESGGGLVQPGGSLRLSCAASGFTFSSYAMSWVRQAPGKGLEWVSTINSGTGKPYYADSVKGRFTISRDNSKNTLYLQMNSLRAEDTAVYYCAKNFFDGSWFLGPPAMDYWGQGTLVTVSSHHHHHH
notes: also called 12-AS170036 VL1VH1-57K98Q
Affinity increase [1]: 13.9 fold | Kd [2]: 16 nM | koff [2]: 0.0025 s⁻¹ | kon [2]: 160000 M⁻¹ s⁻¹

B8: AS170036 VL1VH1-57K108A (scFv)
scFv: QSALTQPRSVSGSPGQSVTISCAGTSSDVGSENYVSWYQQHPGKAPKLMIYQVNKRASGVPDRFSGSKSGNTASLTISGLQAEDEADYYCASYRSSDHNIVFGGGTKLTVLGGGGSGGGGSGGGGSEVQLVESGGGLVQPGGSLRLSCAASGFTFSSYAMSWVRQAPGKGLEWVSTINSGTGKPYYADSVKGRFTISRDNSKNTLYLQMNSLRAEDTAVYYCAKNFFDGSWFLAPPAMDYWGQGTLVTVSSHHHHHH
notes: also called 25-AS170036 VL1VH1-57K108A
Affinity increase [1]: 22.5 fold | Kd [2]: 10 nM | koff [2]: 0.0018 s⁻¹ | kon [2]: 180000 M⁻¹ s⁻¹

B9: AS170036 VL1VH1-57K108D (scFv)
scFv: QSALTQPRSVSGSPGQSVTISCAGTSSDVGSENYVSWYQQHPGKAPKLMIYQVNKRASGVPDRFSGSKSGNTASLTISGLQAEDEADYYCASYRSSDHNIVFGGGTKLTVLGGGGSGGGGSGGGGSEVQLVESGGGLVQPGGSLRLSCAASGFTFSSYAMSWVRQAPGKGLEWVSTINSGTGKPYYADSVKGRFTISRDNSKNTLYLQMNSLRAEDTAVYYCAKNFFDGSWFLDPPAMDYWGQGTLVTVSSHHHHHH
notes: also called 26-AS170036 VL1VH1-57K108D
Affinity increase [1]: 18.9 fold | Kd [2]: 12 nM | koff [2]: 0.0022 s⁻¹ | kon [2]: 190000 M⁻¹ s⁻¹

B10: AS170036 VL1VH1-57K108S (scFv)
scFv: QSALTQPRSVSGSPGQSVTISCAGTSSDVGSENYVSWYQQHPGKAPKLMIYQVNKRASGVPDRFSGSKSGNTASLTISGLQAEDEADYYCASYRSSDHNIVFGGGTKLTVLGGGGSGGGGSGGGGSEVQLVESGGGLVQPGGSLRLSCAASGFTFSSYAMSWVRQAPGKGLEWVSTINSGTGKPYYADSVKGRFTISRDNSKNTLYLQMNSLRAEDTAVYYCAKNFFDGSWFLSPPAMDYWGQGTLVTVSSHHHHHH
notes: also called 27-AS170036 VL1VH1-57K108S
Affinity increase [1]: 10.1 fold | Kd [2]: 22 nM | koff [2]: 0.0026 s⁻¹ | kon [2]: 120000 M⁻¹ s⁻¹

B11: AS170036 VL1VH1-57M98F (scFv)
scFv: QSALTQPRSVSGSPGQSVTISCAGTSSDVGSENYVSWYQQHPGKAPKLMIYQVNKRASGVPDRFSGSKSGNTASLTISGLQAEDEADYYCASYRSSDFNIVFGGGTKLTVLGGGGSGGGGSGGGGSEVQLVESGGGLVQPGGSLRLSCAASGFTFSSYAMSWVRQAPGKGLEWVSTINSGTGMPYYADSVKGRFTISRDNSKNTLYLQMNSLRAEDTAVYYCAKNFFDGSWFLGPPAMDYWGQGTLVTVSSHHHHHH
notes: also called 13-AS170036 VL1VH1-57M98F
Affinity increase [1]: 9.3 fold | Kd [2]: 24 nM | koff [2]: 0.0087 s⁻¹ | kon [2]: 360000 M⁻¹ s⁻¹

B12: AS170036 VL1VH1-57M98I (scFv)
scFv: QSALTQPRSVSGSPGQSVTISCAGTSSDVGSENYVSWYQQHPGKAPKLMIYQVNKRASGVPDRFSGSKSGNTASLTISGLQAEDEADYYCASYRSSDINIVFGGGTKLTVLGGGGSGGGGSGGGGSEVQLVESGGGLVQPGGSLRLSCAASGFTFSSYAMSWVRQAPGKGLEWVSTINSGTGMPYYADSVKGRFTISRDNSKNTLYLQMNSLRAEDTAVYYCAKNFFDGSWFLGPPAMDYWGQGTLVTVSSHHHHHH
notes: also called 14-AS170036 VL1VH1-57M98I
Affinity increase [1]: 5.6 fold | Kd [2]: 40 nM | koff [2]: 0.013 s⁻¹ | kon [2]: 310000 M⁻¹ s⁻¹

B13: AS170036 VL1VH1-57M98Q (scFv)
scFv: QSALTQPRSVSGSPGQSVTISCAGTSSDVGSENYVSWYQQHPGKAPKLMIYQVNKRASGVPDRFSGSKSGNTASLTISGLQAEDEADYYCASYRSSDQNIVFGGGTKLTVLGGGGSGGGGSGGGGSEVQLVESGGGLVQPGGSLRLSCAASGFTFSSYAMSWVRQAPGKGLEWVSTINSGTGMPYYADSVKGRFTISRDNSKNTLYLQMNSLRAEDTAVYYCAKNFFDGSWFLGPPAMDYWGQGTLVTVSSHHHHHH
notes: also called 15-AS170036 VL1VH1-57M98Q
Affinity increase [1]: 8 fold | Kd [2]: 28 nM | koff [2]: 0.0067 s⁻¹ | kon [2]: 240000 M⁻¹ s⁻¹

B14: AS170036 VL1VH1-57M108A (scFv)
scFv: QSALTQPRSVSGSPGQSVTISCAGTSSDVGSENYVSWYQQHPGKAPKLMIYQVNKRASGVPDRFSGSKSGNTASLTISGLQAEDEADYYCASYRSSDHNIVFGGGTKLTVLGGGGSGGGGSGGGGSEVQLVESGGGLVQPGGSLRLSCAASGFTFSSYAMSWVRQAPGKGLEWVSTINSGTGMPYYADSVKGRFTISRDNSKNTLYLQMNSLRAEDTAVYYCAKNFFDGSWFLAPPAMDYWGQGTLVTVSSHHHHHH
notes: also called 28-AS170036 VL1VH1-57M108A
Affinity increase [1]: 13.6 fold | Kd [2]: 17 nM | koff [2]: 0.004 s⁻¹ | kon [2]: 240000 M⁻¹ s⁻¹

B15: AS170036 VL1VH1-57M108D (scFv)
scFv: QSALTQPRSVSGSPGQSVTISCAGTSSDVGSENYVSWYQQHPGKAPKLMIYQVNKRASGVPDRFSGSKSGNTASLTISGLQAEDEADYYCASYRSSDHNIVFGGGTKLTVLGGGGSGGGGSGGGGSEVQLVESGGGLVQPGGSLRLSCAASGFTFSSYAMSWVRQAPGKGLEWVSTINSGTGMPYYADSVKGRFTISRDNSKNTLYLQMNSLRAEDTAVYYCAKNFFDGSWFLDPPAMDYWGQGTLVTVSSHHHHHH
notes: also called 29-AS170036 VL1VH1-57M108D
Affinity increase [1]: 11.8 fold | Kd [2]: 19 nM | koff [2]: 0.0055 s⁻¹ | kon [2]: 290000 M⁻¹ s⁻¹

B16: AS170036 VL1VH1-57M108S (scFv)
scFv: QSALTQPRSVSGSPGQSVTISCAGTSSDVGSENYVSWYQQHPGKAPKLMIYQVNKRASGVPDRFSGSKSGNTASLTISGLQAEDEADYYCASYRSSDHNIVFGGGTKLTVLGGGGSGGGGSGGGGSEVQLVESGGGLVQPGGSLRLSCAASGFTFSSYAMSWVRQAPGKGLEWVSTINSGTGMPYYADSVKGRFTISRDNSKNTLYLQMNSLRAEDTAVYYCAKNFFDGSWFLSPPAMDYWGQGTLVTVSSHHHHHH
notes: also called 30-AS170036 VL1VH1-57M108S
Affinity increase [1]: 6.8 fold | Kd [2]: 33 nM | koff [2]: 0.0067 s⁻¹ | kon [2]: 200000 M⁻¹ s⁻¹

B17: AS170036 VL1VH1-98F108A (scFv)
scFv: QSALTQPRSVSGSPGQSVTISCAGTSSDVGSENYVSWYQQHPGKAPKLMIYQVNKRASGVPDRFSGSKSGNTASLTISGLQAEDEADYYCASYRSSDFNIVFGGGTKLTVLGGGGSGGGGSGGGGSEVQLVESGGGLVQPGGSLRLSCAASGFTFSSYAMSWVRQAPGKGLEWVSTINSGTGSPYYADSVKGRFTISRDNSKNTLYLQMNSLRAEDTAVYYCAKNFFDGSWFLAPPAMDYWGQGTLVTVSSHHHHHH
notes: also called 31-AS170036 VL1VH1-98F108A
Affinity increase [1]: 19.1 fold | Kd [2]: 12 nM | koff [2]: 0.0039 s⁻¹ | kon [2]: 330000 M⁻¹ s⁻¹

Reference: patent US20240279318A1 (NANJING LEGEND BIOTECH, published 2024)
